PMC2897027 (Journal of molecular biology, 2010)
One block for each molecule: values may come before it.

How the values were obtained:
[1] = target: CTD MSK1 construct comprising residues 414-750 (human) (UniProt O75582); test: SEC
[2] = target: CTD MSK1 construct comprising residues 398-738 (human) (UniProt O75582); test: SEC
[3] = target: "full length" C-terminal kinase domain of MSK1 (residues 414-802) (human, UniProt O75582 414-802); test: SPR
Sequence of "full length" C-terminal kinase domain of MSK1 (residues 414-802) (O75582 414-802): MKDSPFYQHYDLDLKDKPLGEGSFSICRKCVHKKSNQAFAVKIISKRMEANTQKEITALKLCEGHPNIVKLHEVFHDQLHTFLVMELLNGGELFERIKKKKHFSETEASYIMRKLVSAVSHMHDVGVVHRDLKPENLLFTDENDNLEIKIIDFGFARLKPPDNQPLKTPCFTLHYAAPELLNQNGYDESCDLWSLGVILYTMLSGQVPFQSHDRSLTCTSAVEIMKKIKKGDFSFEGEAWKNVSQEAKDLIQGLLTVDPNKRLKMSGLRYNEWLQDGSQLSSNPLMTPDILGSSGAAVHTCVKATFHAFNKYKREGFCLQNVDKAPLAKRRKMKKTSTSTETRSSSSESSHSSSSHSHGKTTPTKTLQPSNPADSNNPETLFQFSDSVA

- stoichiometry N [1]: 2
Molecule: CTD MSK1 construct comprising residues 414-750 (from UniProt O75582 414-750) (domain or fragment)

- stoichiometry N [2]: 2
Molecule: CTD MSK1 construct comprising residues 398-738 (from UniProt O75582 398-738) (domain or fragment)

- Kd [3]: 74 ± 6 nM
B1: Full length human ERK1 (enzyme, UniProt P27361 1-379, looked up)
chain: MAAAAAQGGGGGEPRRTEGVGPGVPGEVEMVKGQPFDVGPRYTQLQYIGEGAYGMVSSAYDHVRKTRVAIKKISPFEHQTYCQRTLREIQILLRFRHENVIGIRDILRASTLEAMRDVYIVQDLMETDLYKLLKSQQLSNDHICYFLYQILRGLKYIHSANVLHRDLKPSNLLINTTCDLKICDFGLARIADPEHDHTGFLTEYVATRWYRAPEIMLNSKGYTKSIDIWSVGCILAEMLSNRPIFPGKHYLDQLNHILGILGSPSQEDLNCIINMKARNYLQSLPSKTKVAWAKLFPKSDSKALDLLDRMLTFNPNKRITVEEALAHPYLEQYYDPTDEPVAEEPFTFAMELDDLPKERLKELIFQETARFQPGVLEAP
